Assay results from article PMC4454200 (2015).

Molecular target: Myosin-5a (Mus musculus, UniProt Q99104)
Assay: ATPase activity assay

Sequence of Myosin-5a (Q99104 2-1853): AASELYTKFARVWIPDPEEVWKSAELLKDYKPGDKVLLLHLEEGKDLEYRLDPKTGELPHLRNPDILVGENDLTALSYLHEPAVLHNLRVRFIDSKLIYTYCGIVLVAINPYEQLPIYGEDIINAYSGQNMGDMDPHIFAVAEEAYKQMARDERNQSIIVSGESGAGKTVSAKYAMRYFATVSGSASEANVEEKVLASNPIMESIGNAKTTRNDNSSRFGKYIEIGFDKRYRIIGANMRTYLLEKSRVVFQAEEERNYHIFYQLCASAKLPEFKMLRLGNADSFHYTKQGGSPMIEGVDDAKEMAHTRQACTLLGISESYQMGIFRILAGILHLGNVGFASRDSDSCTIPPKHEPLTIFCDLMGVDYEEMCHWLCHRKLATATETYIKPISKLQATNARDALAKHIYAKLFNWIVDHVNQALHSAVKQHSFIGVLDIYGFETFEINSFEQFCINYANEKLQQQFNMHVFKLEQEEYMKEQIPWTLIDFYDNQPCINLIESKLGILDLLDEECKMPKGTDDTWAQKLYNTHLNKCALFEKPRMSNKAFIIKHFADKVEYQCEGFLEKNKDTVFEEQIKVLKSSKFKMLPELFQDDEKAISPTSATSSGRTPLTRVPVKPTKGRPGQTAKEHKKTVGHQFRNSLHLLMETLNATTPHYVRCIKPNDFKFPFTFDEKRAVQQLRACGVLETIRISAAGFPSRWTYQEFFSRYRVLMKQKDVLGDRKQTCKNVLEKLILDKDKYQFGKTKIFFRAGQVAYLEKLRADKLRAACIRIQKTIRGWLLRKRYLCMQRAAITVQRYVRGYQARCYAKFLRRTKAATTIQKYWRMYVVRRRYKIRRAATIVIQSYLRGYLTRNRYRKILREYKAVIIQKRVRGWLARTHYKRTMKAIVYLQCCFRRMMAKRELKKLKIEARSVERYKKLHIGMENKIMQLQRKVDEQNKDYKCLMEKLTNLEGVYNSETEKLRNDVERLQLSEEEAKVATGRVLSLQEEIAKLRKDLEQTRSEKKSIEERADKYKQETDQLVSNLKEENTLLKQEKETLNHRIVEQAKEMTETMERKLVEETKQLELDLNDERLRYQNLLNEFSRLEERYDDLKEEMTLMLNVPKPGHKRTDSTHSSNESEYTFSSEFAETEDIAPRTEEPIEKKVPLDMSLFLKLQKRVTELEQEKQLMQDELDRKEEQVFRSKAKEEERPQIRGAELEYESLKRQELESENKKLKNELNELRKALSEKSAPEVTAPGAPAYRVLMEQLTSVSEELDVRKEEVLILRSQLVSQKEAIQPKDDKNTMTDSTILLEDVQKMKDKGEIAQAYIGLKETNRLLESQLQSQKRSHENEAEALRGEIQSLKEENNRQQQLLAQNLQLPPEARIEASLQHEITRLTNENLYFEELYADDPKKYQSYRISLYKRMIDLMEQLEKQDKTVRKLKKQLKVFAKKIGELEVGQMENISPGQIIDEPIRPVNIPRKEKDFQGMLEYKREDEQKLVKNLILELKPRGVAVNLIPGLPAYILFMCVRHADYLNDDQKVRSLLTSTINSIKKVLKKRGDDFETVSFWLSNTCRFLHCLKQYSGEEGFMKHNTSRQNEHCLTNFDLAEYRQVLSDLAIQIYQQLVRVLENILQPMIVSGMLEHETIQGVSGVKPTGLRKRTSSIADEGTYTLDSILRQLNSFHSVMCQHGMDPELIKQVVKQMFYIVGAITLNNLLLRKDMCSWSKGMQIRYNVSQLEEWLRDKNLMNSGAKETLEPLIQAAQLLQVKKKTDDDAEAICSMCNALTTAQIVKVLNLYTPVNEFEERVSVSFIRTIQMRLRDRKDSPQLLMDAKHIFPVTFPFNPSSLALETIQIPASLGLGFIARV

Kd: 19.8 µM
B1: Melanophilin GTBDP (peptide)
chain: RDQPLNSKKKKRLLSFRDVDFEEDSD
